Legend:
[1] = test system: male BALB/c mice; assay: Intraperitoneal administration to mice, observation of appearance; assay type: in vivo; conditions: 10 mg/kg intraperitoneally, male BALB/c mice (6 weeks age)
[2] = test system: motor activity of gastrointestinal tracts; assay: Motor activity of gastrointestinal tracts in the post-feed period in dogs sutured with strain gauge transducers; assay type: in vivo
Method: An experiment was performed as described below in order to examine the action of glicentin on a motility of gastrointestinal tracts.
Six hybrid dogs weighing 16-18 kg were sutured with strain gauge transducers (manufactured by Star Medical, F121S) at a site of the gastric antrum 4 cm from the pyloric ring, a site of the duodenum for the main incurrent pancreatic duct and a site of the jejunum 10 cm from the Treitz's ligamentum, respectively, to measure the contractile force intensity of the circular muscle. Recovery period for the suture was 2 weeks.
Three of the 6 dogs were intravenously given over 1 hour 15 ml of a physiological saline solution in which 400 pmol of glicentin had been dissolved per kg of bodyweight. The remaining three received an aqueous physiological solution containing no glicentin in the same way as above as a control for comparison. The dogs were fed on 15 g of a solid diet (SD®, manufactured by Oriental Yeast K.K.) and 15 g of Vitaone® (manufactured by Nihon Pet Food K.K. and Kyodo Shiryo K.K.) per kg of bodyweight simultaneously with the intravenous administration.
Then, the motor activity of gastrointestinal tracts and length of the post-feed period were measured. Intensity of the contraction in the post-feed period was integrated for the two-hour measurements and evaluated in comparison with the mean level of the signal peak in phase 3 motor activity of the gastrointestinal tracts in hunger and taken as a motor index.

[3] = 400 pmol/kg i.v. over 1 hour, post-feed contraction integrated over two hours relative to phase 3 peak in hunger, average ± standard error
[4] = 400 pmol/kg i.v. over 1 hour, versus control

B1: Glicentin: One of enteroglucagons, a peptide comprising 69 amino acid residues; human glicentin (SEQ ID NO: 1) prepared by genetic engineering (protein)
chain: RSLQDTEEKSRSFSASQADPLSDPDQMNEDKRHSQGTFTSDYSKYLDSRRAQDFVQWLMNTKRNRNNIA
[1]
  Change in appearance: no change in appearance is observed
[2]; 400 pmol/kg glicentin intravenously over 1 hour, fed simultaneously, average ± standard error
  Length of post-feed period: 13.6 ± 1.0 h
[2]; [3]
  Motor index, duodenum: 0.675 ± 0.4
  Motor index, gastric antrum: 0.878 ± 0.1
  Motor index, jejunum: 1.087 ± 0.2
[2]; [4]
  Influence upon the length of the post-feed period (in words): no influence upon the length of the post-feed period
  Post-feed motility in the vestibulum of stomach (in words): inhibited the post-feed motility in the vestibulum of stomach

— patent US5576295A, “Agent for suppressing the motor activity of gastrointestinal tracts” (Nisshin Flour Milling Co., Ltd., priority 1993, dated 1996)
